The Kd is the concentration at which binding is half-saturated. High values mean weaker binding, low ones tighter binding.

The labels stand for the following.
T1: Kapβ2 (untagged, GST removed) (human, UniProt Q92973-2 1-890)
T1 construct: Karyopherin β2 (Kapβ2, Transportin-1, TNPO1), human; used for ITC and turbidity assays; also called Karyopherin-β2; Transportin-1; source: E. coli BL21 (DE3), purified (GSH column, Tev cleavage, anion exchange, SEC Superdex200)
T1 sequence (looked up): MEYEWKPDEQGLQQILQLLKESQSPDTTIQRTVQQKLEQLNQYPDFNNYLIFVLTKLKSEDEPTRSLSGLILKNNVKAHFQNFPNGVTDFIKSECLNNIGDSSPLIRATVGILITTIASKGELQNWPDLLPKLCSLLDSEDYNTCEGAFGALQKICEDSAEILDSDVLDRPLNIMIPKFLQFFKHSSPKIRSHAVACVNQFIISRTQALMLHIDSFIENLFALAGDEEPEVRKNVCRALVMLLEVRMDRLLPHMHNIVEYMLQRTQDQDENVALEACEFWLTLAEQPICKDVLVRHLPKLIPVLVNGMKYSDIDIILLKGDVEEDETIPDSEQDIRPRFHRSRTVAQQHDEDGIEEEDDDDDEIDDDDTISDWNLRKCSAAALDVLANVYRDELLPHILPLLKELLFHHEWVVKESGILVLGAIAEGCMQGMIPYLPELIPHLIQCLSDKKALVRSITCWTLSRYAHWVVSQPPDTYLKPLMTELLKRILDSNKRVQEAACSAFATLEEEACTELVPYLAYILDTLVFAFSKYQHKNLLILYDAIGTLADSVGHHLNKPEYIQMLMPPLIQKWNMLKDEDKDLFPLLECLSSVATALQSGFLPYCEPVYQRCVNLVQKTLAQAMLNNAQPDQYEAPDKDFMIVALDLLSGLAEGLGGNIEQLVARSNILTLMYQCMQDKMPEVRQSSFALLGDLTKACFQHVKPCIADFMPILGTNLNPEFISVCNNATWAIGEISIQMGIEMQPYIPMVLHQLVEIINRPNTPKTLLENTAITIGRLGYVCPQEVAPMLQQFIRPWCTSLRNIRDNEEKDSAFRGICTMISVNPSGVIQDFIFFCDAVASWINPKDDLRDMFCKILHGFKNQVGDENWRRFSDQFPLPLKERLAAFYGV

T2: GST-Kapβ2 (Karyopherin-β2) (human, UniProt Q92973-2 1-890)
T2 construct: Karyopherin β2 (Kapβ2, Transportin-1, TNPO1), human; GST-importin eluted with glutathione and immobilised again on GSH beads for pull-downs; also called Transportin-1; TNPO1; source: E. coli BL21 (DE3), purified (GSH Sepharose, anion exchange, SEC)
T2 sequence (looked up): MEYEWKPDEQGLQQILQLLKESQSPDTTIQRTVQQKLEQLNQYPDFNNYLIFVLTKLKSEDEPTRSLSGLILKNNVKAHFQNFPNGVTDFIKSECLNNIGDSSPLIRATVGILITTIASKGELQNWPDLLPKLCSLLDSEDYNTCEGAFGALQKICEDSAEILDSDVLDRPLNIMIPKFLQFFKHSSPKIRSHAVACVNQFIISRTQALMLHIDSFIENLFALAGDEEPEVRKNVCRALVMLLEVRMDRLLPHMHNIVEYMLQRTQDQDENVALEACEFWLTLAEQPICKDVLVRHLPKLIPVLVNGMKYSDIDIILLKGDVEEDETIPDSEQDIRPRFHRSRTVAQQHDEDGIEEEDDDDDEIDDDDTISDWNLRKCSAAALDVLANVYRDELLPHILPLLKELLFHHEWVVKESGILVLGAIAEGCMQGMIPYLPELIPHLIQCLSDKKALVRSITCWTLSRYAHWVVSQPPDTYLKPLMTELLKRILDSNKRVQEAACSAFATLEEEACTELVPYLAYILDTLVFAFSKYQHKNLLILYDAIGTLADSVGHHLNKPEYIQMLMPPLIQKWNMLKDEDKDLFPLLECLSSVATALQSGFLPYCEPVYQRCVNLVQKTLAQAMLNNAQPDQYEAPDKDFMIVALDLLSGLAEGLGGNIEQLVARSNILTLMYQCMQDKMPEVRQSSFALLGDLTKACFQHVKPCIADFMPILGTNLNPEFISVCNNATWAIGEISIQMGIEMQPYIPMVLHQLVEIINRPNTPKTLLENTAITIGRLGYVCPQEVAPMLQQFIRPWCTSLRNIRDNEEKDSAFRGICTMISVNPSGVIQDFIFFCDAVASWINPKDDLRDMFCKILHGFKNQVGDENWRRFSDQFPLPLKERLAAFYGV

B1: MBP-FUS(371–500) (RGG2-ZnF-RGG3) (domain or fragment, UniProt P35637 371-500, looked up)
chain: RRADFNRGGGNGRGGRGRGGPMGRGGYGGGGSGGGGRGGFPSGGGGGGGQQRAGDWKCPNPTCENMNFSWRNECNQCKAPKPDGPGGGPGGSHMGGNYGDDRRGGRGGYDRGGYRGRGGDRGGFRGGRGG
notes: also called FUS RGG2-ZnF-RGG3; source: E. coli BL21 (DE3), purified (amylose resin, SEC); not shown: MBP, N-terminal, kept
B2: MBP-FUS PY-NLS (residues 475–526) (domain or fragment, UniProt P35637 475-526, looked up)
chain: GRGGYDRGGYRGRGGDRGGFRGGRGGGDRGGFGPGKMDSRGEHRQDRRERPY
notes: FUS residues 475–526 (PY-NLS); also called FUS(475–526); WT FUS^PY-NLS; source: E. coli BL21 (DE3), purified (amylose resin, SEC); not shown: MBP, N-terminal, kept
B3: MBP-FUS PY-NLS (P525L) (residues 475–526) (domain or fragment, UniProt P35637 475-526, looked up)
chain: GRGGYDRGGYRGRGGDRGGFRGGRGGGDRGGFGPGKMDSRGEHRQDRRERLY
notes: FUS residues 475–526 with the ALS mutation P525L; also called FUS(P525L)^PY-NLS; source: E. coli BL21 (DE3), purified (amylose resin, SEC); not shown: MBP, N-terminal, kept
B4: MBP-FUS(371–452) (RGG2-ZnF) (domain or fragment, UniProt P35637 371-452, looked up)
chain: RRADFNRGGGNGRGGRGRGGPMGRGGYGGGGSGGGGRGGFPSGGGGGGGQQRAGDWKCPNPTCENMNFSWRNECNQCKAPKP
notes: also called FUS RGG2-ZnF; source: E. coli BL21 (DE3), purified (amylose resin, SEC); not shown: MBP, N-terminal, kept
B5: MBP-FUS (full length) (natural protein, UniProt P35637 1-526, looked up)
chain: MASNDYTQQATQSYGAYPTQPGQGYSQQSSQPYGQQSYSGYSQSTDTSGYGQSSYSSYGQSQNTGYGTQSTPQGYGSTGGYGSSQSSQSSYGQQSSYPGYGQQPAPSSTSGSYGSSSQSSSYGQPQSGSYSQQPSYGGQQQSYGQQQSYNPPQGYGQQNQYNSSSGGGGGGGGGGNYGQDQSSMSSGGGSGGGYGNQDQSGGGGSGGYGQQDRGGRGRGGSGGGGGGGGGGYNRSSGGYEPRGRGGGRGGRGGMGGSDRGGFNKFGGPRDQGSRHDSEQDNSDNNTIFVQGLGENVTIESVADYFKQIGIIKTNKKTGQPMINLYTDRETGKLKGEATVSFDDPPSAKAAIDWFDGKEFSGNPIKVSFATRRADFNRGGGNGRGGRGRGGPMGRGGYGGGGSGGGGRGGFPSGGGGGGGQQRAGDWKCPNPTCENMNFSWRNECNQCKAPKPDGPGGGPGGSHMGGNYGDDRRGGRGGYDRGGYRGRGGDRGGFRGGRGGGDRGGFGPGKMDSRGEHRQDRRERPY
notes: Fused in Sarcoma (FUS), full length; in the turbidity assays MBP is cut off by Tev during the assay; also called FL-FUS; MBP-FL FUS; source: E. coli BL21 (DE3), purified (amylose resin, SEC); not shown: MBP, N-terminal, kept

One test addresses T1, Kapβ2 (untagged, GST removed). As to the kind of experiment: ITC; 10 μM Kapβ2 in the cell, 100 μM or 200 μM MBP-FUS protein in the syringe; 20 mM Tris–HCl, 150 mM NaCl, 10% glycerol, 2 mM BME; 20 °C; single class of binding sites, global analysis of duplicates or triplicates. To be noted: both partners purified. (ITC needs no label: the signal is the heat of the interaction.)
On to B1, for which the equilibrium dissociation constant (Kd) was determined as 170 nM.

B2 showed a dissociation constant Kd of 31 nM. Still for that read-out and setting: then B3, with 180 nM; and B4, with 4000 nM.

The target in the next test is T2, GST-Kapβ2 (Karyopherin-β2). As to the kind of experiment: pull-down; 4–8 μM GST-importin (or GST) immobilised on 50 μL GSH beads; 4–8 μM MBP-FUS protein or GSP1 added in 100 μL; 20 mM HEPES pH 7.4, 110 mM potassium acetate, 2 mM magnesium acetate, 2 mM DTT, 15% glycerol; 30 min at 25 °C, three washes; Coomassie-stained SDS-PAGE. To be noted: both partners purified.
Take B5: the binding result is recorded as “binds”.

The values above are taken from paper PMC7881136, “Mechanism of karyopherin-β2 binding and nuclear import of ALS variants FUS(P525L) and FUS(R495X)” (Scientific Reports, 2021).
